In publication PMC10132805 (Nature Communications, 2023):
No end group written: not given here. *: point of attachment. FITC = O=C1OC2(c3ccc(O)cc3Oc3cc(O)ccc32)c2ccc(NC(=S)*)cc21

B1: tumor susceptibility gene 101 protein UEV domain (TSG101 UEV) (domain or fragment)
chain: AVSESQLKKMVSKYKYRDLTVRETVNVITLYKDLKPVLDSYVFNDGSSRELMNLTGTIPVPYRGNTYNIPICLWLLDTYPYNPPICFVKPTSSMTIKTGKHVDANGKIYLPYLHEWKHPQSDLLGLIQVMIVVFGDEPPVFSRP
B2: VHS domain of ADP-ribosylation factor-binding protein GGA3 (GGA3 VHS) (domain or fragment)
chain: ATNPSNRQEDWEYIIGFCDQINKELEGPQIAVRLLAHKIQSPQEWEALQALTVLEACMKNCGRRFHNEVGKFRFLNELIKVVSPKYLGDRVSEKVKTKVIELLYSWTMALPEEAKIKDAYHMLKRQGIVQS
B3: C terminal domain of polyadenylate-binding protein 1 (PABP1 PABC) (domain or fragment)
chain: QEPLTASMLASAPPQEQKQMLGERLFPLIQAMHPTLAGKITGMLLEIDNSELLHMLESPESLRSKVDEAVAVLQAHQA
notes: also called PABPC1 PABC; PABP1 C

Key:
Conditions in all cases: both partners purified
[1] = molecular target: B1
VP0 79-94 (HPeV5) = VP0 79-94 (HPeV5) (Human parechovirus 5 (strain CT86-6760) …)
[2] = molecular target: B2
[3] = molecular target: T1, N-terminal domain of clathrin (human, UniProt Q00610 1-364)
T1 construct: also called CLTC NTD; CLTC-NTD
T1 sequence: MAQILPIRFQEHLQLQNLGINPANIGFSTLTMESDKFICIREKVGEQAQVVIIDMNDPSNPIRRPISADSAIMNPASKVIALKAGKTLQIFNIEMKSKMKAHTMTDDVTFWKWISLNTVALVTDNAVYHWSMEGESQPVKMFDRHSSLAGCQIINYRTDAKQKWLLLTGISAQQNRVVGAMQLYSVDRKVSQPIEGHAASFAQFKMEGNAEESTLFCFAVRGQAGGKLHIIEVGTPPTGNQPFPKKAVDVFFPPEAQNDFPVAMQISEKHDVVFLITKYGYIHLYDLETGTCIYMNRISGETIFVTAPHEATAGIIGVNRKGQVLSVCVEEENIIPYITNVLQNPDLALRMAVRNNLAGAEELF

P1 54-69 (SFV) = P1 54-69 (SFV) (Semliki forest virus (SFV))
[4] = molecular target: T2, GAE domain of ADP-ribosylation factor-binding protein GGA3 (GGA3 GAE) (human, UniProt Q9NZ52 594-715)
T2 construct: also called GGA3 ear
T2 sequence (looked up): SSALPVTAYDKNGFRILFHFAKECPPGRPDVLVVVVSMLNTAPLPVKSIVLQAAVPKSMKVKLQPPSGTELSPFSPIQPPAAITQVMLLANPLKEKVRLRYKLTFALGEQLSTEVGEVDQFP

[5] = molecular target: T3, Mu homology domain (MHD) of the AP-2 subunit mu (AP2M1 MHD) (human, UniProt Q96CW1 170-434)
T3 sequence (looked up): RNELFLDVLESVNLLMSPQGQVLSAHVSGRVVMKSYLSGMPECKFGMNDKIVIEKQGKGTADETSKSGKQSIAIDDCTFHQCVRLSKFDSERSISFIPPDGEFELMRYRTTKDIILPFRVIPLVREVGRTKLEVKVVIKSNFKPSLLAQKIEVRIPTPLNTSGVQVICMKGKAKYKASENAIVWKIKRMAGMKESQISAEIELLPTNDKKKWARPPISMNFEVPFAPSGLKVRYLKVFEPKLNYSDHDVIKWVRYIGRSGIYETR

[6] = molecular target: T4, C terminal domain of polyadenylate-binding protein 1 (human, UniProt P11940 544-623)
T4 construct: also called PABP1 PABC; PABC

N 2-17 (BeV) = N 2-17 (BeV) (Berne virus (BEV))
[7] = molecular target: B3

T4 sequence (P11940 544-623): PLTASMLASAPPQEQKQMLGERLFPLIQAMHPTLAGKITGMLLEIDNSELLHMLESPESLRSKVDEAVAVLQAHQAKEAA

## NLKLTEPTAPMIHNYM [Nsp4 127-142 (BAV)]
[1]
  Kd: 64 ± 4 µM

## B1
VP0 79-94 (HPeV5)
  Kd: 75 ± 0.7 µM

## YQLGEESEERDDHLLPM [M6PR 262-277 (Human)]
[2]
  Kd: 21 ± 1 µM

## YKLVSFHDDSDEDLLHI [IGF2R 2476-2491 (Human)]
[2]
  Kd: 4.7 ± 0.2 µM

## VDGAADLIDFSVPTDE [mu-NS_(705-720) (MRV1) peptide]
[3]
  binding result: binds

## {FITC}-GLIPTAPPAD [FITC - gag 453-462 (HIV2)]
[1]
  Kd: 3.1 ± 0.2 µM

## TPEPVVPTAPELRPSTY [MDC1 1280-1295 (Human)]
[1]
  Kd: 28 ± 0.7 µM

## B2
P1 54-69 (SFV)
  Kd: 82 ± 5 µM

## PDDDDLWLPPPEYIPL [M 26-41 (RABV)]
[2]
  Kd: 148 ± 8 µM

## TSGNGDFGDWSAFNQA [CLINT1 366-381 (Human)]
[4]
  Kd: 35 ± 3 µM

## NLNRVRYSKLDENGVY [Nsp4 75-90 (BAV)]
[5]
  Kd: 15.9 ± 0.2 µM

## DPDDGSYGEYQSYSEN [NP 460-485 (ZEBOV)]
[4]
  Kd: 10.6 ± 0.5 µM

## TTGLNPTAVPFTLRNL [P/V/C_(183-198) (NiV) peptide]
[6]
  binding result: binds

## B3
N 2-17 (BeV)
  Kd: 2.7 ± 0.1 µM

## KSNLNPNAKEFVPGVKY [PAIP2 108-123 (Human)]
[7]
  Kd: 0.16 ± 0.2 µM

## {FITC}-DESDFGPLVGAD [FITC - RABEP1 435-446 (Human)]
[4]
  Kd: 1.9 ± 0.1 µM

## SAGLNPAAVPFVPKNQY [P/V/C 183-198 (HeV)]
[7]
  Kd: 2 ± 0.3 µM

## {FITC}-DDSDEDLLHI [FITC - IGF2R 2482-2491 (Human)]
[2]
  Kd: 4.2 ± 0.4 µM

## MSKLSVNAPEFYPSGY [PAIP1 125-140 (Human)]
[7]
  Kd: 1.58 ± 0.08 µM

## QSIAREPSAPSIPTPAY [PDCD6IP 711-727 (Human)]
[1]
  Kd: 152 ± 1 µM

## SIEELEYQRLVTSLSK [L 177-192 (OLVV)]
[5]
  Kd: 10.9 ± 0.1 µM

## VDEEKGLYPNLKLTEPTAPMIHNYM [Nsp4 118-142 (BAV)]
[1]
  Kd: 73 ± 2 µM

## HPLLNPSALEFNPSQT [N_(351-366) (HCoV 229E) peptide]
[6]
  binding result: binds

## ANEIAAYALLADDLPP [N 124-139 (MuV)]
[5]
  Kd: 4 ± 0.1 µM

## KSNLNPNAKEFVPGVK (peptide, UniProt Q9BPZ3 108-123, looked up, also called PAIP2 peptide) [PABP-interacting protein 2 peptide PAIP2_(108-123)]
[6]
  binding result: binds

## SSLADDFGEFSLFGEY [SYNRG 664-679 (Human)]
[4]
  Kd: 11.2 ± 0.3 µM

## TTGLNPTAVPFTLRNLY [P/V/C 183-198 (NiV)]
[7]
  Kd: 14.6 ± 0.8 µM

## EKKRGNYSRLDDRQVR [F 519-534 (HeV)]
[5]
  Kd: 14 ± 1 µM

## SAGLNPAAVPFVPKNQ [P/V/C_(183-198) (HeV) peptide]
[6]
  fold weaker affinity than PAIP2(108-123): 10 fold

## VNVGEQYQQLREAATE [NP 334-349 (ZEBOV)]
[5]
  Kd: 9.51 ± 0.07 µM

## WLPPPEYVPLHEISSK [M 32-47 (WCBV)]
[5]
  Kd: 12 ± 0.4 µM

## NLDESDFGPLVGADSVY [RABEP1 433-448 (Human)]
[4]
  Kd: 1.7 ± 0.3 µM

## MRRVTVPTAPPAYADIGYPM [VP40 1-20 (SEBOV)]
[1]
  Kd: 12.2 ± 0.3 µM

## SSPERGWSDYTSGANN [P/V/C 130-145 (NiV)]
[4]
  Kd: 48 ± 6 µM
